# Reference: patent publication US6613506B1, “Compositions and methods for inhibiting human immunodeficiency virus infection by down-regulating human cellular genes” (Subsidiary No. 3, Inc., priority 2000, dated 2003)
# B1: CF-319: GSE, SEQ ID NO:2, sense; NADH dehydrogenase ND6 subunit gene (nucleic acid, listed as Homo sapiens)
# sense: GATCCTCCCGAATCAACCCTGACCCCTCTCCTTCATAAATTATTCAGCTTCCTACACTATTAAAGTTTACCACAACCACCACGCCATCATACTCCTTCAC
# B2: CF-101: GSE, SEQ ID NO:3, sense; NADH dehydrogenase ND2 subunit gene (nucleic acid, listed as Homo sapiens)
# sense: CATCAGCCCTTCTTAACATCTACTTCTACCTACGCCTAATCTACTCCACCTCAATCACACTACTCCCCATATCTAACAACGTAAAAATAAAATGACAGTTTGAGCATACAAAACCCACCCCATTCCTCCCCACACTCATCGCC
# B3: CF-117: GSE, SEQ ID NO:4, antisense; NADH dehydrogenase ND6 subunit gene (nucleic acid, listed as Homo sapiens)
# antisense: GTGAAAGAGTATGATGGGGTGGTGGTTGTCGTAAACTTTAATAGTGTAGGAAGCTGAATAATTTATAAAGGAGAGGGGACAGGGTTGATTCGGGAGGATC
# B4: CF-025: GSE, SEQ ID NO:5, antisense; NADH dehydrogenase ND2 subunit gene (nucleic acid, listed as Homo sapiens)
# antisense: GAAGAAGCAGGCCGGATGTCAGAGGGGTGCCTTGGGTAACCTCTGGGACTCAGAAGTGAAAGGGGGCTATTCCTAGTTTTATTGCTATAGCCATTATGATTATTAATGATGAGTAT
# B5: CF-128: GSE, SEQ ID NO:6, sense; NADH dehydrogenase ND4 subunit gene (nucleic acid, listed as Homo sapiens)
# sense: TCCTAGTCCTCACAATCATGGCAAGCCAGCGCCACTTATCCAGTGAACCACTATCACGAAAAAAACTCTACCTCTCTATACTAATCTCCCTACAAATCTCATTAATTATAATATTCACAACCACAGA
# B6: CF-685: GSE, SEQ ID NO:93, antisense; cell surface heparin binding protein gene (nucleic acid, listed as Homo sapiens)
# antisense: TCGGGAGCCGCGGCTTATGGTGCAGACATGGCCAAGTCCAAGAACCACACCACACACAACCAGTCCCGAAAATGGCACAGAAATGGTATCAAGAAACCCCGAT
# B7: CF-674: GSE, SEQ ID NO:69, sense; human translationally controlled tumor protein 1 gene (nucleic acid, listed as Homo sapiens)
# sense: CTCTGTTCTTCAAGTTTCCCTTTGATTGATTTCATGTAATCTTTGATGTACTTCTTGTAGGCTTCTTTTGTGAAACTTGTTT
# B8: CF-660: GSE, SEQ ID NO:79, antisense; human hsp90 chaperone protein gene (nucleic acid, listed as Homo sapiens)
# antisense: GAGAGGGGGGATCTCATCAGGAACTGCAGCATTGGGTTCCTCTGCTGCCACTTCATCTTCATCAAT
# B9: CF-653: GSE, SEQ ID NO:67, antisense; MIP-1 alpha gene (nucleic acid, listed as Homo sapiens)
# antisense: CCCACATTCCGTCACCTGCTCAGAATCATGCAGGTCTCCACTGCTGCCCTTGCTGTCCTCCTCTGCACCATGGCTCTCTGCAACCAGTTCTCTGCATCACTTGCTGCTGACACG
# B10: CF-676: GSE, SEQ ID NO:63, antisense; alpha enolase gene (nucleic acid, listed as Homo sapiens)
# antisense: GTACAACCAGCTCCTCAGAATTGAAGAGGAGCTGGGCAGCAAGGCTAAGTTTGCCGGCAGGAACTTCAGAAACCCCTTGGCCAAGTAAGCTGTGGGCAGGCAAGCCCTTCGGTCACCTGTTGGCT
# B11: CF-673: GSE, SEQ ID NO:73, antisense; BBC-1 gene (nucleic acid, listed as Homo sapiens)
# antisense: TCATCACTGAGGAAGAGAAGAATTTCAAAGCCTTCGCTAGTCTCCGTATGGCCCGTGCCAACGCCCGGCTCTTCGGCACACGGGCAAAA
# B12: CF-681: GSE, SEQ ID NO:85, antisense; FK506-binding protein A1 gene (nucleic acid, listed as Homo sapiens)
# antisense: TGGGGGAAGGGTGCAGCAACGATTTCTCACCAAATCACTACACAGGACAGCAAAGGGGTGAGAAGGGGCTGAGGGAGGAAAAGCCAGGAAACTGAGATCAGCAGAGGGAGCCAAGCATCAAAAAACAGGAGATGCTGAAGCTGCGATGACCAGCATCATTTTCTTAAGAGAACATTCAAGGATTTGTCATGATGGCTGGGCTTTCACTTGGTGTTAAGTCTACAAACAGCACCTTCAATTGGAACTGTCAATTAAAGTTCTTAAGATTTAGGAAGTGGTGGAGCTTGGAAAGTTATGAGATTACAAAATTTCTGAAAGTC
# Test system: HIV
# Assay: Selection of GSEs from RFE libraries using OM10.1 and CEM-ss cells (strategy not stated per GSE)
# Assay type: cell-based, HIV-1
# Conditions: GSEs matching NADH dehydrogenase subunit genes
# Experimental: The libraries prepared from HL-60 cells according to the method of Section A of this Example, were transfected into the packaging cell line, PA317 (ATCC CRL #9078), and converted into retrovirus for infection of OM10.1 cells. Libraries in pLNCX vector were co-cultured and selected with G418. Libraries in pLNGFRM vector were transduced by spinoculation (centrifugation of target cells at 1200×g for 90 min. in the presence of filtered retroviral supernatant; Dunn et al., 1999, Gene Therapy 6: 133-137) and selected by FACS sorting of the NGFR^+ population. After selection, the OM10.1 cells harboring the entire RFE library were induced with 10 U/mL of TNF-α at 37EC, and 24 hours later, were stained with an antibody and sorted for CD4 expression. Genomic DNA from the CD4^+ cells was purified and used for PCR amplification of inserts with the vector-derived primers. The amplified mixture was digested with EcoRI and BamHI and cloned back into the retroviral vector. The selection was repeated for additional rounds.
# Additionally, a normalized RFE library made from HeLa cells was transferred into CEM-ss cells and the neo resistant population was infected with TCID50 of 3000/10^6 cells of HIV-1IIIB. This RFE library was represented by 50×10^6 independent recombinant clones. Four and seven days after infection, a purified anti-CD4 monoclonal antibody, L77 (available from Becton Dickinson), was added at 5 Φg/mL to prevent syncytia formation. Syncytia formation is thought to be prevented by blocking the interaction between gp120 expressed on the surface of an infected cell and CD4 on the surface of an uninfected cell. […] At 10-12 days after infection, CD4^+, p24^− cell population representing uninfected cells were sorted. Genomic DNA from the CD4^+, p24^− cells was purified and used for PCR amplification of inserts with the vector-derived primers. The amplified mixture was digested with EcoRI and BamHI and cloned back into the retroviral vector. The selection was repeated for additional rounds.
# One strategy selected for GSEs which suppressed productive infection of cells by HIV. The second strategy selected for GSEs which suppressed induction of the latent provirus in OM10.1 cells. When OM10.1 cells were treated with TNF-α and stained with an antibody specific for the cell surface molecule CD4, a rapid loss of CD4 expression was observed (FIG. 1). In contrast, the vast majority of the uninduced OM10.1 cells retained CD4 expression. It is believed that activation of the latent virus in OM10.1 cells by TNF-α leads to the production of viral protein gp120, which binds to cytoplasmic CD4, thereby preventing its translocation to the cell surface. A diminution of CD4^+ OM10.1 cells also correlates with an increased production of viral protein p24 in the cells following TNF-α induction.
# GSEs derived from cDNAs representing expressed human cellular genes were identified and isolated from a RFE library made from HL-60 cells using HIV provirus activation in OM10.1 cells as a read-out. Following transfection of the entire library into a packaging cell line, retrovirus carrying the library was used to infect OM10.1 cells by co-cultivation or spinoculation, and NGFR selection was performed to ensure the retention of the viral vector. When the infected cells were treated with TNF-α a small number of residual CD4^+ cells were detected by an anti-CD4 antibody and sorted by FACS. The GSEs contained in these cells were recovered by PCR amplification and their nucleotide sequences determined.
# A total of twenty GSEs were isolated by the two aforementioned selection strategies using OM10.1 and CEM-ss cells. […] CF-315 was further shown to protect uninfected human T cells from a productive HIV-1 infection (FIG. 2). In this experiment, the retroviral vector, pLNGFRM, containing the CF-315 nucleic acid molecule was transferred into CEM-ss cells followed by NGFR selection. Vector containing plasmid DNA (denoted LNGFRM) was used as negative control. […]
row,Molecule,HIV-suppressive activity of the GSE and active orientation
1,B1,suppresses HIV replication in the sense orientation
2,B2,exhibits its HIV-suppressive activities in the sense orientation
3,B3,suppresses HIV activities as an antisense molecule
4,B4,suppresses HIV infection as an antisense molecule
5,B5,suppresses HIV infection in the sense orientation

# Test system: HIV
# Assay: Selection of GSEs from PBMC library using CEM-ss cells
# Assay type: cell-based
# Conditions: not given
# Experimental: A cell-derived random fragment library (RFL) was constructed using cDNA from peripheral blood mononuclear cells (PBMC). Four buffy coats were obtained from four healthy blood donors and PBMCs were purified by Ficoll gradient centrifugation followed by stimulation with PHA (1 μg/mL). Cells were removed at 5, 10, and 24 hours after the addition of PHA and total RNA was isolated by Trizol extraction. All time points from all donors were then pooled. Polyadenylated mRNA was purified from the total RNA by passages through an oligo-dT column. cDNA was synthesized from the polyadenylated RNA with random primers using the Gibco Superscript Choice system for cDNA Synthesis (Gibco BRL, Rockville, Md.). The cDNA was normalized using the PCR-Select cDNA Subtraction kit (Clontech, Palo Alto, Calif.) based on the suppression subtractive hybridization methods of Diatchenko et al. (1996, Proc. Natl. Acad. Sci. USA 93, 6025-6030, 1996). The primers used for the normalization were: […]
# The normalized random fragments were digested with XhoI and Sse83871, purified on quick spin columns (available from Qiagen, Valencia, Calif.) and ligated into the SseI/XhoI site of a bicistronic retroviral vector, EMCVNgfrMPBIN. This vector was based on LXSNgfr as described in Dunn el al. (1999, Gene Therapy 6:130-137). Modifications included substitution of the Moloney murine leukemia virus LTR with the hybrid LTR described by Baum et al., 1995, (J. Virol. 69:7541-7547) and replacement of the SV40 promoter with encephalomyocarditis virus (EMCV) internal ribosomal entry site isolated from the plasmid, pCITE (available from Amersham, Arlington Heights, Ill.). The ligation mix was then transformed into competent cells. The total plasmid was purified from approximately 50 million clones.
# The PBMC library was screened using the methods described above in Section 1F. A total of 14 GSEs were isolated using CEM-ss cells. […] The complement of SEQ ID NO:69 is represented by SEQ ID NO:70. CF-675 (SEQ ID NO:71) is another GSE that has substantial sequence identity with a gene encoding human translationally controlled tumor protein 1 (GenBank Accession No. HUMCH13C4A). The complement of SEQ ID NO:71 is represented by SEQ ID NO:72. CF-679 (SEQ ID NO:83) is another GSE that has substantial sequence identity with a gene encoding human translationally controlled tumor protein 1 (GenBank Accession No. HUMCH13C4A). The complement of SEQ ID NO:83 is represented by SEQ ID NO:84. […] The complement of SEQ ID NO:75 is represented by SEQ ID NO:76. […] The complement of SEQ ID NO:79 is represented by SEQ ID NO:80. […] The complement of SEQ ID NO:67 is represented by SEQ ID NO:68. […] The complement of SEQ ID NO:63 is represented by SEQ ID NO:64. CF-675 (SEQ ID NO:65) is another GSE that has substantial sequence identity with a gene encoding alpha enolase protein. The complement of SEQ ID NO:65 is represented by SEQ ID NO:66. […] The complement of SEQ ID NO:73 is represented by SEQ ID NO:74. […] The complement of SEQ ID NO:81 is represented by SEQ ID NO:82. […] The complement of SEQ ID NO:85 is represented by SEQ ID NO:86. […] The complement of SEQ ID NO:89 is represented by SEQ ID NO:90. […] The complement of SEQ ID NO:91 is represented by SEQ ID NO:92. […] The complement of SEQ ID NO:93 is represented by SEQ ID NO:94. Another member of the cluster is CF-686 (SEQ ID NO:95), also having substantial sequence identity with a gene encoding cell surface heparin binding protein (Liu et al., ibid.). The complement of SEQ ID NO:95 is represented by SEQ ID NO:96.
row,Molecule,HIV-suppressive activity of the GSE and active orientation
1,B6,interfere with HIV replication as an antisense molecule
2,B7,interferes with HIV replication in a sense orientation
3,B8,interferes with HIV replication as an antisense molecule
4,B9,interferes with HIV replication as an antisense molecule
5,B10,interferes with HIV replication as an antisense molecule
6,B11,interferes with HIV replication as an antisense molecule
7,B12,interferes with HIV replication as an antisense molecule
